{"source": "patent US20240270821A1", "about": "“GIP/GLP1/GCG TRI-RECEPTOR AGONISTS AND USES THEREOF” (priority 2023, published 2024)", "binders": {"B1": {"name": "Example 526 (peptide)", "chain": "YXQGTXTSDXXIXLDXKAQXNFIEXLQEGGPSSGEPPPEGTE", "modifications": "synthetic construct; SITE 2: note = 2-Aminoisobutyric Acid; SITE 6: note = alpha-methyl-2-fluoro-L-phenylalanine; SITE 10: note = 3-(4-Pyridyl)-L-alanine; SITE 11: note = alpha-methyl-L-serine; SITE 13: note = alpha-methyl-leucine; SITE 16: note = L-ornithine; SITE 17: note = Lysine is chemically mo"}, "B2": {"name": "Example 532 (peptide)", "chain": "B1 chain with N21X, X25Y, Q27L, E39S", "modifications": "synthetic construct; SITE 2: note = 2-Aminoisobutyric Acid; SITE 6: note = alpha-methyl-2-fluoro-L-phenylalanine; SITE 10: note = 3-(4-Pyridyl)-L-alanine; SITE 11: note = alpha-methyl-L-serine; SITE 13: note = alpha-methyl-leucine; SITE 16: note = L-ornithine; SITE 17: note = Lysine is chemically mo"}, "B3": {"name": "Example 528 (peptide)", "chain": "B1 chain with N21Q", "modifications": "synthetic construct; SITE 2: note = 2-Aminoisobutyric Acid; SITE 6: note = alpha-methyl-2-fluoro-L-phenylalanine; SITE 10: note = 3-(4-Pyridyl)-L-alanine; SITE 11: note = alpha-methyl-L-serine; SITE 13: note = alpha-methyl-leucine; SITE 16: note = L-ornithine; SITE 17: note = Lysine is chemically mo"}, "B4": {"name": "Example 530 (peptide)", "chain": "B1 chain with N21X, X25Y, Q27S, E39S", "modifications": "synthetic construct; SITE 2: note = 2-Aminoisobutyric Acid; SITE 6: note = alpha-methyl-2-fluoro-L-phenylalanine; SITE 10: note = 3-(4-Pyridyl)-L-alanine; SITE 11: note = alpha-methyl-L-serine; SITE 13: note = alpha-methyl-leucine; SITE 16: note = L-ornithine; SITE 17: note = Lysine is chemically mo"}, "B5": {"name": "Example 544 (peptide)", "chain": "B1 chain with N21X, Q27A, E39S", "modifications": "synthetic construct; SITE 2: note = 2-Aminoisobutyric Acid; SITE 6: note = alpha-methyl-2-fluoro-L-phenylalanine; SITE 10: note = 3-(4-Pyridyl)-L-alanine; SITE 11: note = alpha-methyl-L-serine; SITE 13: note = alpha-methyl-leucine; SITE 16: note = L-ornithine; SITE 17: note = Lysine is chemically mo"}, "B6": {"name": "Example 546 (peptide)", "chain": "B1 chain with X13L, N21X, T41A", "modifications": "synthetic construct; SITE 2: note = 2-Aminoisobutyric Acid; SITE 6: note = alpha-methyl-2-fluoro-L-phenylalanine; SITE 10: note = 3-(4-Pyridyl)-L-alanine; SITE 11: note = alpha-methyl-L-serine; SITE 16: note = L-ornithine; SITE 17: note = Lysine is chemically modified through conjugation of the epsi"}, "B7": {"name": "Example 531 (peptide)", "chain": "B1 chain with X13L, N21X, X25Y, Q27I, E39S", "modifications": "synthetic construct; SITE 2: note = 2-Aminoisobutyric Acid; SITE 6: note = alpha-methyl-2-fluoro-L-phenylalanine; SITE 10: note = 3-(4-Pyridyl)-L-alanine; SITE 11: note = alpha-methyl-L-serine; SITE 16: note = L-ornithine; SITE 17: note = Lysine is chemically modified through conjugation of the epsi"}, "B8": {"name": "Example 542 (peptide)", "chain": "B1 chain with N21X, Q27T, E39S", "modifications": "synthetic construct; SITE 2: note = 2-Aminoisobutyric Acid; SITE 6: note = alpha-methyl-2-fluoro-L-phenylalanine; SITE 10: note = 3-(4-Pyridyl)-L-alanine; SITE 11: note = alpha-methyl-L-serine; SITE 13: note = alpha-methyl-leucine; SITE 16: note = L-ornithine; SITE 17: note = Lysine is chemically mo"}, "B9": {"name": "Example 52 (peptide)", "chain": "YXQGTFTSDFSKXLDKKAQXAFIEYLLEGGPSSGAPPPXEG", "modifications": "synthetic construct; SITE 2: note = 2-Aminoisobutyric Acid; SITE 13: note = alpha-methyl-leucine; SITE 17: note = Lysine is chemically modified through conjugation of the epsilon-amino group of the Lysine side chain with (2-[2-(2-Amino-ethoxy)-ethoxy]-acetyl)-(gamma-Glu)-CO-(CH2) 18-CO2H; SITE 20: n"}, "B10": {"name": "Example 53 (peptide)", "chain": "B9 chain with E40G, G41E", "modifications": "synthetic construct; SITE 2: note = 2-Aminoisobutyric Acid; SITE 13: note = alpha-methyl-leucine; SITE 17: note = Lysine is chemically modified through conjugation of the epsilon-amino group of the Lysine side chain with (2-[2-(2-Amino-ethoxy)-ethoxy]-acetyl)-(gamma-Glu)-CO-(CH2) 18-CO2H; SITE 20: n"}, "B11": {"name": "Example 525 (peptide)", "chain": "YXQGTXTSDXXIXLDXKAQXNFIEXLQEGGPSSGEPPPEGT", "modifications": "synthetic construct; SITE 2: note = 2-Aminoisobutyric Acid; SITE 6: note = alpha-methyl-2-fluoro-L-phenylalanine; SITE 10: note = 3-(4-Pyridyl)-L-alanine; SITE 11: note = alpha-methyl-L-serine; SITE 13: note = alpha-methyl-leucine; SITE 16: note = L-ornithine; SITE 17: note = Lysine is chemically mo"}}, "note": "Numbering of substitutions follows the chain as printed."}
{"biological_target": "human glucagon receptor (human) (UniProt P47871)", "sequence (P47871 26-477)": "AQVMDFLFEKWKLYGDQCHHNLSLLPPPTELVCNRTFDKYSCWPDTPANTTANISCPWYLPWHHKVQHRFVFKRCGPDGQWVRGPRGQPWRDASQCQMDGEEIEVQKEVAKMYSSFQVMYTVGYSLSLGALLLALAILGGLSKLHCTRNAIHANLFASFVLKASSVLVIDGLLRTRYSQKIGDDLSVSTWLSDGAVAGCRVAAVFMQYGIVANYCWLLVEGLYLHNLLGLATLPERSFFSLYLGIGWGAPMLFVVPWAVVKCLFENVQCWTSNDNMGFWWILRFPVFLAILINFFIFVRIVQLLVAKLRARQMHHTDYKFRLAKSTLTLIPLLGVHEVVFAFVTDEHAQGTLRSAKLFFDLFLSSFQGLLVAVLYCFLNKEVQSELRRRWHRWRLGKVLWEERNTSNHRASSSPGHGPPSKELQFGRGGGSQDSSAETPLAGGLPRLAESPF", "experiment": "cell-based or functional assay", "units": {"Relative cAMP EC50": "nM", "cAMP Rel EC50 (1% HSA)": "nM", "cAMP Rel EC50, nM (in the presence of 1% HSA)": "nM"}}
{"binder": "B1", "Relative cAMP EC50": 8.62, "cAMP Rel EC50 (1% HSA)": 530}
{"binder": "B2", "Relative cAMP EC50": 1.37, "cAMP Rel EC50 (1% HSA)": 157}
{"binder": "B3", "Relative cAMP EC50": 7, "cAMP Rel EC50 (1% HSA)": 474}
{"binder": "B4", "Relative cAMP EC50": 17.1, "cAMP Rel EC50 (1% HSA)": 1280}
{"binder": "B5", "Relative cAMP EC50": 2.71, "cAMP Rel EC50 (1% HSA)": 171}
{"binder": "B6", "Relative cAMP EC50": 3.67, "cAMP Rel EC50 (1% HSA)": 225}
{"binder": "B7", "Relative cAMP EC50": 3.79, "cAMP Rel EC50 (1% HSA)": 465}
{"binder": "B8", "Relative cAMP EC50": 5.03, "cAMP Rel EC50 (1% HSA)": 256}
{"binder": "B9", "Relative cAMP EC50": 5.84, "cAMP Rel EC50, nM (in the presence of 1% HSA)": 1740}
{"binder": "B10", "Relative cAMP EC50": 4.19, "cAMP Rel EC50, nM (in the presence of 1% HSA)": 1780}
{"binder": "B11", "Relative cAMP EC50": 10, "cAMP Rel EC50 (1% HSA)": 460}
{"biological_target": "hGLP-1R (Homo sapiens, UniProt P43220)", "sequence (P43220 24-463)": "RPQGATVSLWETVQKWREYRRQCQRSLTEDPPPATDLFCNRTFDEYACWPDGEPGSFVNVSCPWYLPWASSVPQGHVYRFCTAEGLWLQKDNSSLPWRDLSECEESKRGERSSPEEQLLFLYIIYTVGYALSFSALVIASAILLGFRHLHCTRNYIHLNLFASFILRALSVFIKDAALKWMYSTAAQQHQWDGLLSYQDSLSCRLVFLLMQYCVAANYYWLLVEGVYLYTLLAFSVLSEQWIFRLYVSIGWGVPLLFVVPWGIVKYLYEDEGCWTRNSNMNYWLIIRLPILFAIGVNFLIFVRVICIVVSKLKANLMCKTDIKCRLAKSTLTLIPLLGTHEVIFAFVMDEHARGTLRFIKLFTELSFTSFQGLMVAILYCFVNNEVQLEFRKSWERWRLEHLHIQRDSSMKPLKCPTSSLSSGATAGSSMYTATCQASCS", "experiment": "cell-based or functional assay", "units": {"Relative cAMP EC50": "nM", "cAMP Rel EC50 (1% HSA)": "nM", "cAMP Rel EC50, nM (in the presence of 1% HSA)": "nM"}}
{"binder": "B1", "Relative cAMP EC50": 0.421, "cAMP Rel EC50 (1% HSA)": 22.9}
{"binder": "B2", "Relative cAMP EC50": 0.577, "cAMP Rel EC50 (1% HSA)": 47.3}
{"binder": "B3", "Relative cAMP EC50": 0.434, "cAMP Rel EC50 (1% HSA)": 24.3}
{"binder": "B4", "Relative cAMP EC50": 4.91, "cAMP Rel EC50 (1% HSA)": 437}
{"binder": "B5", "Relative cAMP EC50": 0.623, "cAMP Rel EC50 (1% HSA)": 43}
{"binder": "B6", "Relative cAMP EC50": 0.517, "cAMP Rel EC50 (1% HSA)": 34.4}
{"binder": "B7", "Relative cAMP EC50": 0.356, "cAMP Rel EC50 (1% HSA)": 37.8}
{"binder": "B8", "Relative cAMP EC50": 0.388, "cAMP Rel EC50 (1% HSA)": 29.6}
{"binder": "B9", "Relative cAMP EC50": 5.18, "cAMP Rel EC50, nM (in the presence of 1% HSA)": 1250}
{"binder": "B10", "Relative cAMP EC50": 3.31, "cAMP Rel EC50, nM (in the presence of 1% HSA)": 1030}
{"binder": "B11", "Relative cAMP EC50": 0.426, "cAMP Rel EC50 (1% HSA)": 20.2}
{"biological_target": "T1, human GIP receptor (human) (UniProt P48546)", "T1 sequence (looked up)": "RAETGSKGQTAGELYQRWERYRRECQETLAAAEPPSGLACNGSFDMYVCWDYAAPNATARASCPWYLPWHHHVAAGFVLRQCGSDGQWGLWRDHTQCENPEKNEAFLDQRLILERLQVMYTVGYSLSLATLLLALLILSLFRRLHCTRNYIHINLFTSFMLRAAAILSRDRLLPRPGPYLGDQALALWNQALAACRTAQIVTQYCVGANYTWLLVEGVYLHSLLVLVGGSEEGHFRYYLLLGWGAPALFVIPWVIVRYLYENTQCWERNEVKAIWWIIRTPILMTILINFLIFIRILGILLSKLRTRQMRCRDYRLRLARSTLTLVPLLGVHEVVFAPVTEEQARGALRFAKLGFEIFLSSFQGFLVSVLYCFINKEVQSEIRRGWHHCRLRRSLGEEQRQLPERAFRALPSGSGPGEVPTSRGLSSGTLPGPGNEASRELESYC", "experiment": "cell-based or functional assay", "units": {"Relative cAMP EC50": "nM", "cAMP Rel EC50 (1% HSA)": "nM", "cAMP Rel EC50, nM (in the presence of 1% HSA)": "nM"}}
{"binder": "B1", "Relative cAMP EC50": 0.0364, "cAMP Rel EC50 (1% HSA)": 2.12}
{"binder": "B2", "Relative cAMP EC50": 0.0159, "cAMP Rel EC50 (1% HSA)": 1.49}
{"binder": "B3", "Relative cAMP EC50": 0.0333, "cAMP Rel EC50 (1% HSA)": 1.55}
{"binder": "B4", "Relative cAMP EC50": 0.874, "cAMP Rel EC50 (1% HSA)": 63.7}
{"binder": "B5", "Relative cAMP EC50": 0.041, "cAMP Rel EC50 (1% HSA)": 2.4}
{"binder": "B6", "Relative cAMP EC50": 0.25, "cAMP Rel EC50 (1% HSA)": 11.9}
{"binder": "B7", "Relative cAMP EC50": 0.0694, "cAMP Rel EC50 (1% HSA)": 5.2}
{"binder": "B8", "Relative cAMP EC50": 0.0336, "cAMP Rel EC50 (1% HSA)": 1.69}
{"binder": "B9", "Relative cAMP EC50": 0.449, "cAMP Rel EC50, nM (in the presence of 1% HSA)": 111}
{"binder": "B10", "Relative cAMP EC50": 0.518, "cAMP Rel EC50, nM (in the presence of 1% HSA)": 113}
{"binder": "B11", "Relative cAMP EC50": 0.0351, "cAMP Rel EC50 (1% HSA)": 2.07}
